# Test results published in publication PMC2778132.
# Target: endogenous αIIbβ3 integrin receptor of activated platelets (human (endogenous in platelets)) (UniProt P08514)
binder,measurement,value
RGDS [RGDS peptide],"reduction of adhesion of TRAP-activated platelets to fibrinogen-coated wells (1 µM peptide, compared to N-PTB^D66E)",7%
